Measurements reported in the Human Domainome abundance scans (Beltran et al. 2025).
± gives the uncertainty stated by the source.

B1: Apoptosis-associated speck-like protein containing a CARD, residues 114 to 194; numbered along this chain, Q9ULZ3 (parent)
chain: FIDQHRAALIARVTNVEWLLDALYGKVLTDEQYQAVRAEPTNPSKMRKLFSFTPAWNWTCKDLLLQALRESQSYLVEDLER

Variants of: B1
Test: abundance fitness (aPCA) (normalised: wild type 0, dead -1); higher = more abundant; growth selection in yeast, the domain comes from the species named
Settings: Homo sapiens
FIDQHRAALIARVTNVEWLLDALYGKVLTDEQYQAVRAEPTNPSKMRKLFSFTPAWNWTCLDLLLQALRESQSYLVEDLER [K61L] showed an abundance fitness of -0.901 ± 0.13. FIDQHRAALIARVTNVEWLLDALYGKVLTDEQYQAVRAEPTNPSKMRKLFSFTPAWNWTCMDLLLQALRESQSYLVEDLER [K61M] showed an abundance fitness of -0.388 ± 0.096. For FIDQHRAALIARVTNVEWLLDALYGKVLTDEQYQAVRAEPTNPSKMRKLFSFTPAWNWTCNDLLLQALRESQSYLVEDLER [K61N], the abundance fitness was -0.52 ± 0.2. In the case of FIDQHRAALIARVTNVEWLLDALYGKVLTDEQYQAVRAEPTNPSKMRKLFSFTPAWNWTCPDLLLQALRESQSYLVEDLER [K61P], the abundance fitness is reported as -0.806 ± 0.12. FIDQHRAALIARVTNVEWLLDALYGKVLTDEQYQAVRAEPTNPSKMRKLFSFTPAWNWTCQDLLLQALRESQSYLVEDLER [K61Q] gave an abundance fitness of -0.618 ± 0.12. FIDQHRAALIARVTNVEWLLDALYGKVLTDEQYQAVRAEPTNPSKMRKLFSFTPAWNWTCRDLLLQALRESQSYLVEDLER [K61R] showed an abundance fitness of -0.437 ± 0.058. Variant FIDQHRAALIARVTNVEWLLDALYGKVLTDEQYQAVRAEPTNPSKMRKLFSFTPAWNWTCVDLLLQALRESQSYLVEDLER [K61V] has an abundance fitness of -0.649 ± 0.072. FIDQHRAALIARVTNVEWLLDALYGKVLTDEQYQAVRAEPTNPSKMRKLFSFTPAWNWTCWDLLLQALRESQSYLVEDLER [K61W] showed an abundance fitness of -0.003 ± 0.071. FIDQHRAALIARVTNVEWLLDALYGKVLTDEQYQAVRAEPTNPSKMRKLFSFTPAWNWTCYDLLLQALRESQSYLVEDLER [K61Y] showed an abundance fitness of 0.119 ± 0.13. In the case of FIDQHRAALIARVTNVEWLLDALYGKVLTDEQYQAVRAEPTNPSKMRKLFSFTPAWNWTCKALLLQALRESQSYLVEDLER [D62A], the abundance fitness is reported as -0.083 ± 0.066. FIDQHRAALIARVTNVEWLLDALYGKVLTDEQYQAVRAEPTNPSKMRKLFSFTPAWNWTCKCLLLQALRESQSYLVEDLER [D62C] showed an abundance fitness of -0.265 ± 0.23. For FIDQHRAALIARVTNVEWLLDALYGKVLTDEQYQAVRAEPTNPSKMRKLFSFTPAWNWTCKELLLQALRESQSYLVEDLER [D62E], the abundance fitness was 0.047 ± 0.059. FIDQHRAALIARVTNVEWLLDALYGKVLTDEQYQAVRAEPTNPSKMRKLFSFTPAWNWTCKFLLLQALRESQSYLVEDLER [D62F] showed an abundance fitness of -0.195 ± 0.12. For FIDQHRAALIARVTNVEWLLDALYGKVLTDEQYQAVRAEPTNPSKMRKLFSFTPAWNWTCKGLLLQALRESQSYLVEDLER [D62G], the abundance fitness was -0.194 ± 0.06. FIDQHRAALIARVTNVEWLLDALYGKVLTDEQYQAVRAEPTNPSKMRKLFSFTPAWNWTCKILLLQALRESQSYLVEDLER [D62I] gave an abundance fitness of -0.581 ± 0.17. In the case of FIDQHRAALIARVTNVEWLLDALYGKVLTDEQYQAVRAEPTNPSKMRKLFSFTPAWNWTCKKLLLQALRESQSYLVEDLER [D62K], the abundance fitness is reported as -0.088 ± 0.081. In the case of FIDQHRAALIARVTNVEWLLDALYGKVLTDEQYQAVRAEPTNPSKMRKLFSFTPAWNWTCKLLLLQALRESQSYLVEDLER [D62L], the abundance fitness is reported as -0.43 ± 0.073. In the case of FIDQHRAALIARVTNVEWLLDALYGKVLTDEQYQAVRAEPTNPSKMRKLFSFTPAWNWTCKMLLLQALRESQSYLVEDLER [D62M], the abundance fitness is reported as -0.295 ± 0.1. In the case of FIDQHRAALIARVTNVEWLLDALYGKVLTDEQYQAVRAEPTNPSKMRKLFSFTPAWNWTCKNLLLQALRESQSYLVEDLER [D62N], the abundance fitness is reported as -0.207 ± 0.16. FIDQHRAALIARVTNVEWLLDALYGKVLTDEQYQAVRAEPTNPSKMRKLFSFTPAWNWTCKPLLLQALRESQSYLVEDLER [D62P] gave an abundance fitness of -0.768 ± 0.11. Work on FIDQHRAALIARVTNVEWLLDALYGKVLTDEQYQAVRAEPTNPSKMRKLFSFTPAWNWTCKQLLLQALRESQSYLVEDLER [D62Q] yielded an abundance fitness of -0.037 ± 0.11. In the case of FIDQHRAALIARVTNVEWLLDALYGKVLTDEQYQAVRAEPTNPSKMRKLFSFTPAWNWTCKRLLLQALRESQSYLVEDLER [D62R], the abundance fitness is reported as -0.2 ± 0.071. FIDQHRAALIARVTNVEWLLDALYGKVLTDEQYQAVRAEPTNPSKMRKLFSFTPAWNWTCKSLLLQALRESQSYLVEDLER [D62S] gave an abundance fitness of -0.168 ± 0.055. Work on FIDQHRAALIARVTNVEWLLDALYGKVLTDEQYQAVRAEPTNPSKMRKLFSFTPAWNWTCKTLLLQALRESQSYLVEDLER [D62T] yielded an abundance fitness of -0.423 ± 0.1. For FIDQHRAALIARVTNVEWLLDALYGKVLTDEQYQAVRAEPTNPSKMRKLFSFTPAWNWTCKVLLLQALRESQSYLVEDLER [D62V], the abundance fitness was -0.646 ± 0.086. FIDQHRAALIARVTNVEWLLDALYGKVLTDEQYQAVRAEPTNPSKMRKLFSFTPAWNWTCKWLLLQALRESQSYLVEDLER [D62W] showed an abundance fitness of -0.609 ± 0.13. FIDQHRAALIARVTNVEWLLDALYGKVLTDEQYQAVRAEPTNPSKMRKLFSFTPAWNWTCKYLLLQALRESQSYLVEDLER [D62Y] showed an abundance fitness of -0.644 ± 0.19. FIDQHRAALIARVTNVEWLLDALYGKVLTDEQYQAVRAEPTNPSKMRKLFSFTPAWNWTCKDALLQALRESQSYLVEDLER [L63A] gave an abundance fitness of -0.185 ± 0.053. For FIDQHRAALIARVTNVEWLLDALYGKVLTDEQYQAVRAEPTNPSKMRKLFSFTPAWNWTCKDCLLQALRESQSYLVEDLER [L63C], the abundance fitness was -0.44 ± 0.11. FIDQHRAALIARVTNVEWLLDALYGKVLTDEQYQAVRAEPTNPSKMRKLFSFTPAWNWTCKDDLLQALRESQSYLVEDLER [L63D] showed an abundance fitness of -0.777 ± 0.14. FIDQHRAALIARVTNVEWLLDALYGKVLTDEQYQAVRAEPTNPSKMRKLFSFTPAWNWTCKDELLQALRESQSYLVEDLER [L63E] gave an abundance fitness of -0.31 ± 0.1. With FIDQHRAALIARVTNVEWLLDALYGKVLTDEQYQAVRAEPTNPSKMRKLFSFTPAWNWTCKDFLLQALRESQSYLVEDLER [L63F] the abundance fitness was -0.381 ± 0.073. For FIDQHRAALIARVTNVEWLLDALYGKVLTDEQYQAVRAEPTNPSKMRKLFSFTPAWNWTCKDGLLQALRESQSYLVEDLER [L63G], the abundance fitness was -0.862 ± 0.082. Work on FIDQHRAALIARVTNVEWLLDALYGKVLTDEQYQAVRAEPTNPSKMRKLFSFTPAWNWTCKDHLLQALRESQSYLVEDLER [L63H] yielded an abundance fitness of -0.425 ± 0.16.
